Test results as given in article PMC6614843 (2019).

Tests used:
[1] = molecular target: T1, Polβ(WT), purified recombinant (human, UniProt P06746 1-335); test: SPR; representative experiment
[2] = molecular target: T2, Polβ(T304I), purified recombinant (human, UniProt P06746 1-335, T304I); test: SPR; representative experiment
[3] = molecular target: T1, Polβ(WT), purified recombinant; test: SPR; mean of repeats
[4] = molecular target: T2, Polβ(T304I), purified recombinant; test: SPR; mean of repeats

B1: NTD-XRCC1(1-151)-His (domain or fragment)
chain: MPEIRLRHVVSCSSQDSTHCAENLLKADTYRKWRAAKAGEKTISVVLQLEKEEQIHSVDIGNDGSAFVEVLVGSSAGGAGEQDYEVLLVTSSFMSPSESRSGSNPNRVRMFGPDKLVRAAAEKRWDRVKIVCSQPYSKDSPFGLSFVRFHS
Kd [1]: 358 nM
Kd [2]: 3650 nM
Kd [3]: 534 nM
Kd [4]: 3300 nM
